Test results: patent publication US20140096274A1 (published 2014)
Where a chain is given by its changes, count along the chain named.

T1: murine RANK-Fc (mouse, UniProt O35305 31-214)
T1 construct: also called mRANK-Fc; mRANK-FC; not shown: Fc part of the bought fusion; not described
T1 sequence (looked up): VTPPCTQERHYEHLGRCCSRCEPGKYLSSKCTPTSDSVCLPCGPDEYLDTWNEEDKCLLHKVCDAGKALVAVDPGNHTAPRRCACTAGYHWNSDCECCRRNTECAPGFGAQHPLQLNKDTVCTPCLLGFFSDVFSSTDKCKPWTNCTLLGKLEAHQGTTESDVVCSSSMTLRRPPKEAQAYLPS

B1: murine RANKL heterodimeric variant mD1 (mouse Dimer 1) (ligand)
chain 1: EAQPFAHLTINAASIPSGSHKVTLSSWYHDRGWADISNMTLSNGKLRVNQDGFYYLYANISFRHHETSGSVPTDYLQLMVYVVKTSIKIPSSHNLMKGGSTKNWSGNSEFHYYSINVGGFFKLRAGEEISIQVSNPSLLDPDQDATYFGAFKVQDID
chain 2: B1 chain 1 with D35K, F53Y, S61C, K97D, Y112F, F120Y
notes: range 160-316; Heterodimer of monomer A (His-tagged) and monomer B, co-expressed in E. coli; also called RANKL dimer 1; RANK-L Dimer 1; not shown: hexahistidine-tag fused to monomer A
B2: human RANK-Fc (Fc fusion, UniProt Q9Y6Q6 30-212, looked up)
chain: IAPPCTSEKHYEHLGRCCNKCEPGKYMSSKCTTTSDSVCLPCGPDEYLDSWNEEDKCLLHKVCDTGKALVAVVAGNSTTPRRCACTAGYHWSQDCECCRRNTECAPGLGAQHPLQLNKDTVCKPCLAGYFSDAFSSTDKCRPWTNCTFLGKRVEHHGTEKSDAVCSSSLPARKPPNEPHVYLP
notes: also called hRANK-Fc; hRANK-FC; not shown: Fc part of the bought fusion; not described
B3: murine RANKL heterodimeric variant mD2 (mouse Dimer 2) (ligand)
chain 1: B1 chain 1 with T9V, D35K, S70K
chain 2: B1 chain 1 with T9V, D35K, F53Y, S61C, S70K, K97D, Y112F, F120Y
notes: range 160-316; Heterodimer of monomer A (His-tagged) and monomer B, co-expressed in E. coli; also called RANKL dimer 2; dRANKL D2; not shown: hexahistidine-tag fused to monomer A
B4: trimeric murine wild-type RANKL (R&D systems) (ligand, mouse, UniProt O35235 158-316, looked up)
chain: KPEAQPFAHLTINAASIPSGSHKVTLSSWYHDRGWAKISNMTLSNGKLRVNQDGFYYLYANICFRHHETSGSVPTDYLQLMVYVVKTSIKIPSSHNLMKGGSTKNWSGNSEFHFYSINVGGFFKLRAGEEISIQVSNPSLLDPDQDATYFGAFKVQDID
notes: Bought soluble trimeric protein; also called murine RANKL wt; mRANKL WT

Legend:
murine RANK-Fc [1] = molecular target: T1, murine RANK-Fc; assay: competitive ELISA on mRANK-Fc coated wells, competitor 2 nM flag-mRANKL WT, anti-flag detection
Experimental: The ability of mD1 and mD2 to compete with mRANKL WT for binding to mRANK-Fc was investigated using a competitive ELISA. Serial dilutions of mD1 or mD2 (0-400 nM) and a fixed concentration (2 nM) of flag-mRANKL WT were added to mRANK-Fc coated wells. A dose-dependent decrease of flag-mRANKL WT binding was observed upon increasing concentrations of mD1 and mD2 (FIG. 18A).

murine RANK-Fc [2] = molecular target: T1, murine RANK-Fc; assay: competitive ELISA on RANK-Fc coated wells, competitor flag-mRANKL (0-53 nM), anti-flag detection, global four parameter fit
Experimental: The ability of dimer 1 and dimer 2 to compete with wild-type murine RANKL for binding to mRANK was investigated using a competitive ELISA. […] After washing off unbound RANKL, mRANK bound flag-mRANKL was detected by an anti-flag antibody. A RANKL dimer concentration dependant decrease in mRANK binding and right shift in the EC₅₀ of flag-mRANKL was observed (FIGS. 7 and 18B), indicating a competitive inhibition based mechanism. IC₅₀ values for dimer 1 and dimer 2 were calculated to be 4 nM by a global fit of the individual dose response curves using a four parameter logistic model.

human RANK-Fc [3] = molecular target: B2; assay: SPR on hRANK-Fc, 37 C
Experimental: (§1) A Biacore experiment was performed to determine the kinetics of binding of the dimeric variants. hRANK-FC (Sigma) was captured in flow cell 2 at a level of 40 RU by a 60 s injection pulse of a 0.7 ug/ml hRANK-FC solution at a flow rate of 50 uL/min. Flow cell 1 served as reference cell. Subsequently, serial dilutions ranging from 562 nM to 100 pM of murine RANKL wt (R&D systems), or the purified RANKL dimers mD1 and mD2 were injected over both flow cells at 50 uL/min and 37° C. Binding was measured in real time. After each cycle the protein A surface was regenerated with a 30 s pulse of 10 mM Glycine pH 1.5. Kd values were calculated by fitting the data to a langmuir 1:1 binding model using the BIAevaluation software as described before (30). (Table 6 and FIG. 6).
(§2) Kinetic binding parameters were measured in real time using SPR. RANKL dimer binding curves were recorded using concentrations ranging from 100 pM to 562 nM dimer 1 (mD1) or dimer 2 (mD2), trimeric murine wild-type RANKL was used as a control. Measurements were performed at 37° C. The dissociation constants (KD) were determined by fitting the data to a Langmuir 1:1 interaction model. […] The binding off-rate constant (koff) of wild-type murine RANKL was ˜2 to 6 fold slower than for dimer 1 and dimer 2.

[4] = molecular target: B3; assay: SPR (Biacore), hRANK-Fc captured on protein A at 40 RU, 37 C, 1:1 Langmuir fit
Experimental: as §1, §2

[5] = molecular target: B1; assay: as above
Experimental: as §1, §2

[6] = molecular target: B3; assay: SPR single cycle kinetics, hRANK-Fc captured at 20-40 RU, 1:1 fit
Experimental: (§3) Considering the high similarity between human RANKL and murine RANKL (>88%) the murine dimers were also tested for hRANK binding. Binding to hRANK-Fc and mRANK-Fc (both from R&D Systems) was recorded for five consecutive concentrations of murine flag RANKL WT, D1 (mD1) or D2 (mD2) (˜0.3-15 nM) using SPR with a single cycle kinetics based approach. The capture level of mRANK-Fc and hRANK-Fc was low (20-40 RU) in order to ensure 1:1 binding. Both WT and the D1 and D2 dimeric variants bound with high affinity towards the mRANK receptor and to the human RANK receptor (FIG. 16: Table 8).

[7] = molecular target: B1; assay: as above
Experimental: as §3

murine RANK-Fc [8] = molecular target: T1, murine RANK-Fc; assay: ELISA, immobilized mRANK-Fc, % binding normalised to the highest concentration
human RANK-Fc [9] = molecular target: B2; assay: SPR (Biacore), hRANK-Fc captured on protein A at 40 RU, 37 C, 1:1 Langmuir fit
Experimental: as §1, §2

Binder: B1
IC50 (murine RANK-Fc [1]): 31 nM | IC50 (murine RANK-Fc [2]): 4 nM | fold faster kon than wild-type murine RANKL (human RANK-Fc [3]): ~5 fold

Binder: B2
Ka [4]: 1.8e+10 M⁻¹ | Kd [4]: 0.0619 nM | koff [4]: 0.000554 s⁻¹ | kon [4]: 8.55e+06 M⁻¹ s⁻¹ | Ka [5]: 2.33e+10 M⁻¹ | Kd [5]: 0.0446 nM | koff [5]: 0.000197 s⁻¹ | kon [5]: 4.52e+06 M⁻¹ s⁻¹ | Kd [6]: 0.0259 nM | koff [6]: 0.000173 s⁻¹ | kon [6]: 6.69e+06 M⁻¹ s⁻¹ | Kd [7]: 0.129 nM | koff [7]: 0.00108 s⁻¹ | kon [7]: 8.8e+06 M⁻¹ s⁻¹

Binder: B3
IC50 (murine RANK-Fc [1]): 28 nM | IC50 (murine RANK-Fc [2]): 4 nM | fold faster kon than wild-type murine RANKL (human RANK-Fc [3]): ~10 fold

Binder: B4
EC50 (read off the curve) (murine RANK-Fc [8]): ~0.1 nM | Ka (human RANK-Fc [9]): 9.23e+09 M⁻¹ | Kd (human RANK-Fc [9]): 0.11 nM | koff (human RANK-Fc [9]): 8.97e-05 s⁻¹ | kon (human RANK-Fc [9]): 827000 M⁻¹ s⁻¹
